Substrate in data set [1]: N[C@@H](CO)C(=O)O
Kind of data set: purified protein. The following applies: apparent, 0.4 mM THF fixed, 25 °C, 50 mM HEPES pH 7, aerobic. Type of data set: biochemical, Plasmodium vivax.

Substrate in data set [2]: Nc1nc2c(c(=O)[nH]1)N[C@@H](CNc1ccc(C(=O)N[C@@H](CCC(=O)O)C(=O)O)cc1)CN2
Kind of data set: purified protein. The following applies: apparent, 2 mM L-serine fixed, 25 °C, 50 mM HEPES pH 7, aerobic. Type of data set: biochemical, Plasmodium vivax.

The term Km denotes the substrate concentration at which the rate is half of its maximum. As a reminder, the kcat is the maximal rate divided by the concentration of active sites.

B1: PvSHMT (Plasmodium vivax Sal-1) (protein)
chain: MFNNEPLEQIDKELHDILADEEKRQRETINLIASENLTNGAVRECLGNRVSNKYSEGYPKKRYYGGNDFIDKIEELCQKRALEAFNVSDEEWGVNVQPLSGSAANVQALYALVGVKGKIMGMHLCSGGHLTHGFFDEKKKVSITSDMFESKLYKCNSQGYVDLDAVREMALSFKPKVIICGYTSYPRDIDYQQFRQICDEVNAYLFADISHISSFVACNILNNPFLHADVVTTTTHKILRGPRSALIFFNKKRNPGIEQKINSAVFPSFQGGPHNNKIAAVACQLKEVHSPAFKEYTQQVLLNSKALAKALISKQIDLVTNGTDNHLIVVDLRKFSITGSKLQETCNAINVSLNKNTIPSDVDCVSPSGVRIGTPAMTTRGAKEKDMEFIADVLARAIKITVDLQEQYGKKLVDFKKGLPGNAQLQQLKQEVVTWAGALPFP
notes: recombinant, expressed in E. coli BL21(DE3) as in an earlier report; dimer
As to B1, in the data set “purified protein [1]”, the Km stood at 190 ± 20 µM and the kcat came out at 1.26 ± 0.13 s⁻¹. Also, in the data set “purified protein [2]”, the Km came to 90 ± 20 µM and the kcat is 1.26 ± 0.13 s⁻¹.
